In patent publication US7183387 (Genentech, dated 2007):

T1: human FcγRIIB α subunit extracellular domain-His6-GST fusion (human, UniProt P31994 43-217)
T1 construct: extracellular domain; also called CD32; not shown: glutathione S transferase (GST)
T1 sequence: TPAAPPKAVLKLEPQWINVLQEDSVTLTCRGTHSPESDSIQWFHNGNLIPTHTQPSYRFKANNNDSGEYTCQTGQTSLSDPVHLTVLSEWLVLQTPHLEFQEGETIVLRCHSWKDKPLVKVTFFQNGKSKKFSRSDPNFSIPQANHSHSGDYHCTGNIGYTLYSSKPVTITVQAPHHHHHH

T2: human FcγRIIA-Arg131 α subunit extracellular domain-His6-GST fusion (human, UniProt P12318 34-217)
T2 construct: extracellular domain; also called FcγRIIA-R131; not shown: glutathione S transferase (GST)
T2 sequence: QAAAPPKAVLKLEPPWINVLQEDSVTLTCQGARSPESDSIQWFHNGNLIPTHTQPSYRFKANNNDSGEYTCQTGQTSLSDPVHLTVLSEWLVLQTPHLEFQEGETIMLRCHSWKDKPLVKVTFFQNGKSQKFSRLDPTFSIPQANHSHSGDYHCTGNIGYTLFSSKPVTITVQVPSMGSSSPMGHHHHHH

T3: human FcγRIIB α subunit extracellular domain-6His-GST fusion (human, UniProt P31994 43-217)
T3 construct: not shown: glutathione S-transferase (GST)
T3 sequence: T1 sequence

T4: human FcγRIIA-R131 α subunit extracellular domain-6His-GST fusion (human, UniProt P12318 34-217)
T4 construct: also called FcγRIIA-Arg131; not shown: glutathione S-transferase (GST)
T4 sequence: T2 sequence

B1: anti-IgE E27 IgG1 Tyr296Phe (antibody)
heavy: not shown
light: DIQLTQSPSSLSASVGDRVTITCRASKPVDGEGDSYLNWYQQKPGKAPKLLIYAASYLESGVPSRFSGSGSGTDFTLTISSLQPEDFATYYCQQSHEDPYTFGQGTKVEIKRTVAAPSVFIFPPSDEQLKSGTASVVCLLNNFYPREAKVQWKVDNALQSGNSQESVTEQDSKDSTYSLSSTLTLSKADYEKHKVYACEVTHQGLSSPVTKSFNRGEC
B2: anti-IgE E27 IgG1 Glu293Ala (antibody)
heavy: not shown
light: B1 light
B3: anti-IgE E27 IgG1 variant Lys334Ala (antibody)
heavy: not shown
light: B1 light
notes: also called K353A
B4: anti-IgE E27 IgG1 variant Asp265Ala (antibody)
heavy: not shown
light: B1 light
notes: also called D278A
B5: anti-IgE E27 IgG1 variant Glu333Ala (antibody)
heavy: not shown
light: B1 light
notes: also called E352A
B6: anti-IgE E27 IgG1 variant Lys290Ala (antibody)
heavy: not shown
light: B1 light
notes: also called K290(307)A; K307A
B7: anti-IgE E27 IgG1 variant Pro331Ala (antibody)
heavy: not shown
light: B1 light
notes: also called P331(350)A; IG2 65
B8: E27 IgG1 variant K334(353)M (antibody)
heavy: not shown
light: B1 light
notes: also called IG2 190
B9: E27 IgG1 variant K334(353)W (antibody)
heavy: not shown
light: B1 light
B10: E27 IgG1 variant K290(307)E (antibody)
heavy: not shown
light: B1 light
notes: also called IG2 77
B11: E27 IgG1 variant K290(307)R (antibody)
heavy: not shown
light: B1 light
notes: also called IG2 78
B12: E27 IgG1 variant K334(353)Y (antibody)
heavy: not shown
light: B1 light
B13: E27 IgG1 variant A339(359)T (antibody)
heavy: not shown
light: B1 light
notes: also called IG2 273
B14: E27 IgG1 variant K334(353)H (antibody)
heavy: not shown
light: B1 light
B15: anti-IgE E27 IgG1 Arg416 changed to Ala (antibody)
heavy: not shown
light: B1 light
notes: named only by its position

These binders were tested against T5, human neonatal Fc receptor (FcRn), biotinylated (human, UniProt P55899 24-297; P61769 21-119, biotinylated (biotin-X-NHS)) (assay: FcRn ELISA, pH 6.0;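 also: Streptavidin-captured FcRn plates, IgG variants titrated 2 h at pH 6.0, peroxidase anti-human IgG read at 450 nm, variant over standard concentration at the standard curve mid-point absorbance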).
T5 construct: captured on streptavidin plates
T5 sequence (P55899 24-297 limits assumed, chain 1 of 2): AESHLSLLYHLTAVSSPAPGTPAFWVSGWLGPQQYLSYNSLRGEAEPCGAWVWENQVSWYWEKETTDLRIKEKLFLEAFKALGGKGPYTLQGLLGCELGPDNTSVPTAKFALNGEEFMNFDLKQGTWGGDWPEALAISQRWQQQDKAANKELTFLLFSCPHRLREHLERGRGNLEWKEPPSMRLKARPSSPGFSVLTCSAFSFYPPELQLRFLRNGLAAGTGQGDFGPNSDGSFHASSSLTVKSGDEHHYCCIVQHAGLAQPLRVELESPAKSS
T5 sequence (P61769 21-119 limits assumed, chain 2 of 2): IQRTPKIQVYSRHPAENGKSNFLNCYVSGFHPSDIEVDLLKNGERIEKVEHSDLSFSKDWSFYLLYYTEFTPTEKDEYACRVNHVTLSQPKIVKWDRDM
Method: FcRn Binding ELISA: For measuring FcRn binding activity of IgG variants, ELISA plates were coated with 2 µg/ml streptavidin (Zymed, South San Francisco) in 50 mM carbonate buffer, pH 9.6, at 4° C. overnight and blocked with PBS-0.5% BSA, pH 7.2 at room temperature for one hour. Biotinylated FcRn (prepared using biotin-X-NHS from Research Organics, Cleveland, Ohio and used at 1–2 µg/ml) in PBS-0.5% BSA, 0.05% polysorbate 20, pH 7.2, was added to the plate and incubated for one hour. Two fold serial dilutions of IgG standard (1.6–100 ng/ml) or variants in PBS-0.5% BSA, 0.05% polysorbate 20, pH 6.0, were added to the plate and incubated for two hours. Bound IgG was detected using peroxidase labeled goat F(ab')_2 anti-human IgG F(ab')_2 in the above pH 6.0 buffer (Jackson ImmunoResearch, West Grove, Pa.) followed by 3,3',5,5'-tetramethyl benzidine (Kirgaard & Perry Laboratories) as the substrate. Plates were washed between steps with PBS-0.05% TWEEN 20® at either pH 7.2 or 6.0. Absorbance was read at 450 nm on a Vmax plate reader (Molecular Devices, Menlo Park, Calif.). Titration curves were fit with a four-parameter nonlinear regression curve-fitting program (KaleidaGraph, Synergy software, Reading, Pa.). Concentrations of IgG variants corresponding to the mid-point absorbance of the titration curve of the standard were calculated and then divided by the concentration of the standard corresponding to the mid-point absorbance of the standard titration curve.

Row | Binder | ratio to native IgG1
1 | B1 | 0.79 ratio
2 | B2 | 0.85 ratio

The binders below were run against T6, human FcγRIIIA-Phe158 α subunit extracellular domain-His6-GST fusion protein (human, UniProt P08637 17-208) (assay: ELISA, IgG:IgE hexamer on coated FcγRIIIA-Phe158-GST; value carried over from Table 6).
T6 construct: ELISA-format target; also called FcγRIIIA-F158; not shown: glutathione S-transferase (GST)
T6 sequence (P08637 other isoform, or with tags, fused parts or gaps, form in doubt): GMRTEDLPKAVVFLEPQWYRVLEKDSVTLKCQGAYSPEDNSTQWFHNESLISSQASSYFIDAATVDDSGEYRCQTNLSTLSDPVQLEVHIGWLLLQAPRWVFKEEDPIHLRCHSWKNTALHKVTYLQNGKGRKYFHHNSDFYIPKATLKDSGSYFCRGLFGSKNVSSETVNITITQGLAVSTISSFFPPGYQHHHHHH

Row | Binder | ratio of binding of the variant to that of native IgG1
3 | B3 | 1.39 ratio (variant/native IgG1)
4 | B4 | 0.09 ratio (variant/native IgG1)
5 | B5 | 1.27 ratio (variant/native IgG1)
6 | B6 | 1.31 ratio (variant/native IgG1)
7 | B7 | 1.08 ratio (variant/native IgG1)

What follows are binders tested against T6, human FcγRIIIA-Phe158 α subunit … (assay: ELISA format, hexameric complex on FcγRIIIA-Phe158; separate assays run together with the Val158 assays).

Row | Binder | ratio of binding of the variant to that of native IgG1
8 | B3 | 1.39 ratio (variant/native IgG1)
9 | B4 | 0.05 ratio (variant/native IgG1)
10 | B5 | 1.13 ratio (variant/native IgG1)
11 | B6 | 1.15 ratio (variant/native IgG1)
12 | B7 | 1 ratio (variant/native IgG1)

The binders below were run against T7, human FcγRIIIA-Val158 with human γ-chain on stably transfected CHO cells (human, UniProt P08637 17-254; P30273 19-86) (assay: flow cytometry, monomeric IgG on CHO cells with FcγRIIIA-Val158 α- and γ-chains).
T7 construct: whole, on cells; CHO cells stably transfected with the α- and γ-chains of the receptor; also called FcγRIIIA-Val158 (cell-based assay); FcγRIIIA-V158
T7 sequence (P08637 17-254 F176V, chain 1 of 2): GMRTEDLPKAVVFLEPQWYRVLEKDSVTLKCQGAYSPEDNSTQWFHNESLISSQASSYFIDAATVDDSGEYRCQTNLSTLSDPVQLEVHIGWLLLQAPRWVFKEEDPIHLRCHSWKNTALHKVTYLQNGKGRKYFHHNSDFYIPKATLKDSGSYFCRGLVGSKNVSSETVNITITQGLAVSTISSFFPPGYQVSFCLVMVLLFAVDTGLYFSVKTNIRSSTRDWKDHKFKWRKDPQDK
T7 sequence (P30273 19-86, chain 2 of 2): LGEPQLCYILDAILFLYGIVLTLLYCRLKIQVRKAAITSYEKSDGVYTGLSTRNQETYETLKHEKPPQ

Row | Binder | ratio of binding of the variant to that of native IgG1
13 | B3 | 1.26 ratio (variant/native IgG1)
14 | B4 | 0.05 ratio (variant/native IgG1)
15 | B5 | 1.08 ratio (variant/native IgG1)
16 | B6 | 0.89 ratio (variant/native IgG1)
17 | B7 | 0.88 ratio (variant/native IgG1)

What follows are binders tested against T8, human FcγRIIIA-Phe158 α subunit extracellular domain-His6-GST fusion (human, UniProt P08637 17-208) (assay: hexamer ELISA).
T8 construct: extracellular domain; also called FcγRIIIA-F158; CD16; not shown: glutathione S transferase (GST)

Row | Binder | ratio to native IgG1
18 | B1 | 0.55 ratio
19 | B2 | 0.31 ratio

What follows are binders tested against T1, human FcγRIIB α subunit extracellular … (assay: hexamer ELISA).

Row | Binder | ratio to native IgG1
20 | B1 | 0.86 ratio
21 | B2 | 1.07 ratio

The binders below were run against T2, human FcγRIIA-Arg131 α subunit … (assay: hexamer ELISA).

Row | Binder | ratio to native IgG1
22 | B1 | 0.97 ratio
23 | B2 | 1.08 ratio

These binders were tested against T9, human FcγRI (FcγRIA) α subunit extracellular domain-His6-GST fusion (human, UniProt P12314 16-292) (assay: monomeric IgG; ELISA on receptor-GST and THP-1 cells, averaged).
T9 construct: Reported FcγRI values are the average of the plate ELISA on this fusion and of a flow cytometry assay on THP-1 cells; also called GST-FcγRIA; not shown: glutathione S-transferase (GST)
T9 sequence (P12314 other isoform, or with tags, fused parts or gaps, form in doubt): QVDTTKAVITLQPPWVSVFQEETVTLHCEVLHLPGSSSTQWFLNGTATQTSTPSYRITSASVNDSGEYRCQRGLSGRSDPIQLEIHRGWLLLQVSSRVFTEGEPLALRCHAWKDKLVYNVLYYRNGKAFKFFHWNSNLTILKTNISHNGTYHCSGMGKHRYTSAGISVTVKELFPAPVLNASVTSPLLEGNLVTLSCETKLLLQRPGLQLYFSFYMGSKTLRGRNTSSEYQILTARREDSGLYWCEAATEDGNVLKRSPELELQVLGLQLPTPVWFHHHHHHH

Row | Binder | ratio to native IgG1
24 | B8 | 1.18
25 | B9 | 1.16
26 | B10 | 1.14
27 | B11 | 1.25
28 | B12 | 1.15
29 | B13 | 1.23
30 | B14 | 1.11

What follows are binders tested against T10, human FcγRIA α subunit extracellular domain-His6-GST fusion (human, UniProt P12314 16-292) (assay: FcγRI ELISA and THP-1 cells, averaged).
T10 construct: extracellular domain; also called GST-FcγRIA; CD64; not shown: glutathione S transferase (GST)
T10 sequence (P12314 other isoform, or with tags, fused parts or gaps): as the sequence (P12314 other isoform, or with tags, fused parts or gaps, form in doubt) above

Row | Binder | ratio to native IgG1
31 | B1 | 1.03 ratio
32 | B2 | 1.11 ratio

Molecular target: T8, human FcγRIIIA-Phe158 α subunit …
Test: hexamer ELISA
Remark: another data set of the same source

Row | Binder | reduction in binding against native IgG1
33 | B15 | 30%
34 | B1 | 50%
35 | B2 | 70%

Molecular target: T2, human FcγRIIA-Arg131 α subunit …
Test: hexamer ELISA
Remark: another data set of the same source

Row | Binder | reduction in binding against native IgG1
36 | B15 | 30%

What follows are binders tested against T11, human FcγRIIIA-Phe158 with human γ-chain on stably transfected CHO cells (human, UniProt P08637 17-254; P30273 19-86) (assay: flow cytometry, monomeric IgG on CHO cells with FcγRIIIA-Phe158 α- and γ-chains).
T11 construct: whole, on cells; CHO cells stably transfected with the α- and γ-chains of the receptor; also called FcγRIIIA-Phe158 (cell-based assay)
T11 sequence (P08637 17-254, chain 1 of 2): as the sequence (P08637 17-254 F176V, chain 1 of 2) above, with V160F counted along it
T11 sequence (P30273 19-86, chain 2 of 2): as the sequence (P30273 19-86, chain 2 of 2) above
Method: CHO cell transfection was carried out using Superfect (Qiagen) according to the manufacturer's instructions. […] Receptor expression levels were determined by staining with anti-FcγRIII monoclonal antibody 3G8 (Medarex). Binding of IgG1 variants was performed by adding monomeric IgG in staining buffer to 5×10^5 cells and incubating in 96 well round-bottom tissue culture plates (Costar, Cambridge, Mass.) at 4° C. for 30 min. Cells were washed three times with staining buffer and IgG binding detected by addition of 1:200 PE-F(ab')_2 fragment of goat anti-human IgG and incubation for 30 min at 4° C. After washing, immunofluorescence staining was analyzed on a FACScan flow cytometer using Cellquest software (Becton Dickinson). Dead cells were excluded from analysis by addition of 1 μg/ml propidium iodide.
For FcγRIIIA, the selected variants were assayed in the ELISA-format as well as on stable-transfected CHO cell lines expressing the γ-chains (FcγRIIIA-Phe158 or FcγRIIIA-Val158) with the associated human α-chain.

Row | Binder | ratio of binding of the variant to that of native IgG1
37 | B3 | 2.46 ratio (variant/native IgG1)
38 | B4 | 0.12 ratio (variant/native IgG1)
39 | B5 | 1.42 ratio (variant/native IgG1)
40 | B6 | 1.61 ratio (variant/native IgG1)
41 | B7 | 0.94 ratio (variant/native IgG1)

The binders below were run against T3, human FcγRIIB α subunit extracellular … (assay: ELISA, IgG:IgE hexamers on receptor-GST).

Row | Binder | ratio to native IgG1
42 | B8 | 0.93
43 | B9 | 0.91
44 | B10 | 1.2
45 | B11 | 1.15
46 | B12 | 1.05
47 | B13 | 1.23
48 | B14 | 1.07

These binders were tested against T4, human FcγRIIA-R131 α subunit … (assay: ELISA, IgG:IgE hexamers on receptor-GST).

Row | Binder | ratio to native IgG1
49 | B8 | 0.99
50 | B9 | 0.94
51 | B10 | 1.1
52 | B11 | 1.05
53 | B12 | 1.08
54 | B13 | 1.11
55 | B14 | 1.09

Each binder was assayed against T12, human FcγRIIIA-F158 α subunit extracellular domain-6His-GST fusion (human, UniProt P08637 17-208) (assay: ELISA, IgG:IgE hexamers on receptor-GST).
T12 construct: also called FcγRIIIA-Phe158; not shown: glutathione S-transferase (GST)

Row | Binder | ratio to native IgG1
56 | B8 | 0.49
57 | B9 | 1.07
58 | B10 | 1.3
59 | B11 | 1.08
60 | B12 | 1.31
61 | B13 | 1.42
62 | B14 | 1.26

These binders were tested against T13, human FcγRIIIA-Val158 α subunit extracellular domain-His6-GST fusion protein (human, UniProt P08637 17-208) (assay: ELISA format, hexameric complex on FcγRIIIA-Val158).
T13 construct: ELISA-format target; also called FcγRIIIA-V158; not shown: glutathione S-transferase (GST)
T13 sequence (P08637 other isoform, or with tags, fused parts or gaps, form in doubt): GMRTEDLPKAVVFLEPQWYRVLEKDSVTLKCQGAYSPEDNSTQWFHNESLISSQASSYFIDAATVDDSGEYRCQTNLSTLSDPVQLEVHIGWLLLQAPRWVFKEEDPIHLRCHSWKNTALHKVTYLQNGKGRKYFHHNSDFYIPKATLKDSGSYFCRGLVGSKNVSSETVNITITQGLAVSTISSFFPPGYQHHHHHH

Row | Binder | ratio of binding of the variant to that of native IgG1
63 | B3 | 1.1 ratio (variant/native IgG1)
64 | B4 | 0.02 ratio (variant/native IgG1)
65 | B5 | 1.06 ratio (variant/native IgG1)
66 | B6 | 1.01 ratio (variant/native IgG1)
67 | B7 | 0.97 ratio (variant/native IgG1)
